From publication PMC9926112

Target: GST-fused N-terminal fragment of human β-spectrin (GST-hNβSp) (human) (UniProt P11277)
Assay: SPR; Biacore X100; GST-hNβSp (500 nM) captured on a CM5 chip by anti-GST antibody; h4.1R recombinants (GST cleaved) 150-1000 nM as analyte; PBS, 25 °C; regeneration in 10 mM Glycine-Cl pH 2.1

Sequence of UniProt P11277 (P11277 1-527): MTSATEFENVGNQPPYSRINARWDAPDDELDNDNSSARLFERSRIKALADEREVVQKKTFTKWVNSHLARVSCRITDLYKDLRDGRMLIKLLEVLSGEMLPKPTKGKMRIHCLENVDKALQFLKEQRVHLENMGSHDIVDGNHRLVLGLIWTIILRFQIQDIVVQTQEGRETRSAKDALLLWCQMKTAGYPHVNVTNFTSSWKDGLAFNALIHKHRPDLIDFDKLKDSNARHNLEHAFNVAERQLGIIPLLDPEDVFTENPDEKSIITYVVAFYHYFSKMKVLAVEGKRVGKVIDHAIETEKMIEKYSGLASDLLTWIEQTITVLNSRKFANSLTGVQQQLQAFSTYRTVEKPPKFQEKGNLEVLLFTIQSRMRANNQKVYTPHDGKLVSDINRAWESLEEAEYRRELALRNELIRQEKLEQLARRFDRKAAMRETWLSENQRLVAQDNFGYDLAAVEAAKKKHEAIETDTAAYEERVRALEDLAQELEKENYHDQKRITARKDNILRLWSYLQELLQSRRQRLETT

Substance	Kd [µM]	kon [M⁻¹ s⁻¹]
human 4.1R with the PE and e14 sequences of alpaca 4.1R (h4.1R[PE14]), cleaved from GST	0.121	55100
human protein 4.1R, wild type (h4.1R WT), cleaved from GST (natural protein)	0.633	5040
